Laboratory results from patent publication US20120207760A1 (THERACLONE SCIENCES, published 2012).

Columns and labels:
[1] = target: T1, hemagglutinin (HA) of influenza A/Solomon Islands/3/06 H1N1 (Influenza A virus A/Solomon …); test: cell-based or functional assay
[2] = target: T1, hemagglutinin (HA) of influenza …; test: ELISA, inactivated whole virions coated; transfection supernatant set 3
[3] = target: T2, hemagglutinin (HA) of influenza A/Japan/305/57 H2N2 (Influenza A virus A/Japan/305/1957 …, UniProt P03451 16-562); test: as above
[4] = target: T1, hemagglutinin (HA) of influenza …; test: ELISA, inactivated whole virions coated; transfection supernatant set 4
[5] = target: T2, hemagglutinin (HA) of influenza …; test: as above
[6] = target: hemagglutinin (HA) on live influenza A virus A/California/4/09 H1N1 (Influenza A virus A/California/04/2009 …); test: cell-based or functional assay
[7] = target: hemagglutinin (HA) on live influenza A virus A/Solomon Islands/3/06 H1N1 (Influenza A virus A/Solomon …); test: cell-based or functional assay
[8] = target: hemagglutinin (HA) on live influenza A virus A/Wisconsin/67/05 H3N2 (Influenza A virus A/Wisconsin/67/2005 …); test: cell-based or functional assay
[9] = target: T1, hemagglutinin (HA) of influenza …; test: ELISA, inactivated whole virions coated; transfection supernatant set 2
[10] = target: T2, hemagglutinin (HA) of influenza …; test: as above

B1: TCN-533 (5256_A17) (antibody, V domains shown)
VH: QVQLVQSGADVKKPGSSVTVSCKASGGSFSNYGINWVRQAPGQGLEWMGGIIPLINAPNYAPKFQGRVTITADMFSNIVSLQLTSLRTDDTAVYYCARRKMTTAIDYWGQGTLVTVSS
VL: QPVLSQPPSASASLGASVTLTCTLSSGFDNYQVAWYQQRPGKGPRFVMRVGNGGNVASKGDGIPDRFSVSGSGLNRYLTIKNIQEDDESDYYCGADHGSGNNFVSPYVFGGGTKLTVL
% Neutralization [1]: 56%
OD450 [2]: 3.61 OD450
OD450 [3]: 3.65 OD450

B2: TCN-529 (5297_H01) (antibody, V domains shown)
VH: QITLRESGPTLVKPTQTLTLTCTFSGFSLSTNGVNVGWIRQPPGKALEWLALIYWDDDKRYSPSLKRRLTITKDTSKNQVVLTLTNMDPVDTATYYCAHRPDFYGDFEYWGPGTLVTVSS
VL: QSALTQPASVSGSPGQSITISCTGSSSDIGGYNYVSWYQQHPGKAPKLMIYDVNNRPSGVSNRFSGSKSGNTASLTISGLQTDDEADYYCGSYTGSPHYVFGTGTKVTVL
% Neutralization [1]: 0%
OD450 [2]: 0.16 OD450
OD450 [3]: 0.1 OD450

B3: TCN-532 (5262_H18) (antibody, V domains shown)
VH: QVQLQESGPGLVKPSETLSLTCTVSGGSVSSETYYWSWIRQPPGKGLEWIGYIYYIGNTDYRPSLKSRVTISLDTSKNQFSLKLSSVTAADTAVYYCARGAYYDSSGYPAFYIWGQGTMVTVSS
VL: QSVLTQPPSVSGAPGQRVTISCTGSSSNIGSDYDVHWYKQLPGTAPKLLIFGNSNRPSGVPDRFSGSKSGTSASLAITGLQAEDEADYYCQSYDSSLSGFHVFGSGTKVTVL
% Neutralization [1]: 11%
OD450 [2]: 0.13 OD450
OD450 [3]: 0.08 OD450

B4: TCN-536 (5095_N01) (antibody, V domains shown)
VH: QVQLQQWGAGLLKPSETLSLTCAVYGGSFSVSGYYWSWIRQPPGRGLEWIGEISHGGSTNYNPSLKSRVTISVDTTKNQFSLRLSSVTAADTAVYYCARGTDPDTEVYCRVGNCAAFDYWGQGSLVTVSS
VL: EIILAQSPGTLSLSPGERATLSCRASQFVSTRSLAWYQQRPGQAPRLLIYGASSRATGIPDRFSGSGSGTDFTLTISRLEPEDFAVYYCQHYGYSPRYAFGQGSKVEIK
% Neutralization [1]: 75%
OD450 [4]: 3.52 OD450
OD450 [5]: 0.06 OD450

B5: TCN-542 (5079_A16) (antibody, V domains shown)
VH: QVQLQESGPGLVKPSQTLSLTCTVSGGSISSGNYYWNWVRQHPGKGLEWIGYIYYRGSTFYNPSLKSRVTISIDTSKNQFSLRLSSVTAADTAVYYCAKDTRSSLDNYQYGMDVWGQGTTVTVSS
VL: QTVVTQEPSLTVSPGGTVTLTCASSTGAVTSSYFPNWFQQKPGQAPRPLIYSTTIRHSWTPARFSGSLLGGKAALTLSGVQPEDEADYYCLLYSGGDPVAFGGGTKLTVL
% Neutralization [6]: 15%
% Neutralization [7]: 99%
% Neutralization [8]: 8%

B6: TCN-555 (5246_L16) (antibody, V domains shown)
VH: QVQLVQSGAEVKRPGSSVKVSCTASGGIFRKNAISWVRQAPGQGLEWMGGIIAVFNTANYAQKFQNRVKITADESGNTAYMELSSLTSDDTAVYYCASHPKYFYGSGSYPDFWGQGTLVTVSS
VL: QSALTQPRSVSGSPGQSITISCTGGSSDIGASNSVSWYQQHPGKAPKLVIFDVTERPSGVPHRFSGSKSGNTASLTVSGLQPDDEADYFCCAYGGKYLVVFGGGTKVTVL
% Neutralization [7]: 49%
% Neutralization [8]: 5%

B7: TCN-563 (5237_B21) (antibody, V domains shown)
VH: QVQLAQSGAEVKRPGSSVKVSCTASGGIFRKNAISWVRQAPGQGLEWMGGIIAVFNTANYAQKFQGRVKITADESGNTAYMELSSLRSDDTAVYYCASHPKYFYGSGSYPDFWGQGTLVTVSS
VL: QSALTQPRSVSGSPGQSVTISCTGSSSDVGASNSVSWYQQHPGKAPKLVIYDVTERPSGVPHRFSGSKSGNTASLTVSGLQPEDEADYFCCAYGGKYLVVFGGGTKVTVL
% Neutralization [1]: 78%
OD450 [9]: 3.6 OD450
OD450 [10]: 0.84 OD450

B8: TCN-528 (5087_P17) (antibody, V domains shown)
VH: QVQLVQSGSEVKKPGASVKVSCKASGYTFTNYDINWIRQAPGQGLEWMGWINPNSGTTGSAQRFQGRVTITVDTSITTVYMELSSLRSDDTAIYYCARGRELLRLQHFLTDSQSERRDCFDPWGQGTLVTVSS
VL: DIQMTQSPSSLSASVGDRVTITCRANQDIGIYLNWYQQNPGKVPKLLLHGASSLQGGVPSRFSASGSGTDFTLTIHSLQPEDLATYYCQQSRRLPYTFGQGTRVELK
% Neutralization [1]: 0%
OD450 [9]: 3.66 OD450
OD450 [10]: 3.64 OD450

B9: TCN-527 (5086_C06) (antibody, V domains shown)
VH: QVQLQESGPGLVKPSETLSLNCAVSGGSISNYYWSWIRQPPGKGLEWIGYISYNGRPKYNPSLTSRVTISVDTSKDQFSLELRSVTAADTALYYCARETRFGELLSPYDAFEIWGQGTMVTVSS
VL: DIQMTQSPSSLSASVGDRVTMTCRASQNIRSYLNWYQQRPGTAPKLLIYAASTLHSGVPSRFSGGGSGTDFTLTINNLQPEDFASYYCQQSYDNPQTFGQGTKVEIK
% Neutralization [1]: 12%
OD450 [9]: 3.69 OD450
OD450 [10]: 3.63 OD450

B10: TCN-526 (5084_C17) (antibody, V domains shown)
VH: EVLMVESGGGLVQPGGSVRLSCVASGFSFSSHWMTWVRQAPGKGLEWVANIEDDGGDKYYVDSVKGRFIISRDNAKNSVYLQMNSLRAEDTAVYFCARGSGSSDRSDYDPHYYYYLDVWGKGATVTVSS
VL: DIQLTQSPSSLSASVGDRVTITCRASQSISRYLNWYQQKPGKAPKLLLFAASTLLDGVPSRFSGSGSGTDFTLTISSLQPEDFATYYCQRNHSPSWTFGQGTRVEIK
% Neutralization [1]: 0%
OD450 [9]: 0.08 OD450
OD450 [10]: 0.07 OD450

B11: TCN-522 (3212_I12) (antibody, V domains shown)
VH: QVQLQQWGAGLLKPSETLSLTCTVSGGSLTDYSWNWIRQPPGKGLEWIGDTLHNGYTNYNPSLRGRVSISIDTSKNQVSLRLTSVTAADTALYYCARGSGGYGGFDYFGKLRTWDFWGQGTLVTVSS
VL: DIQLTQSPSSLSASVGDRVTITCRASQGIRNDLGWYQQKPGNAPKRLIFGASSLQSGVPSRFSGSGSGTEFTLTISSLQPEDFATYYCLQHNSYPYTFGQGTKLEIK
% Neutralization [1]: 33%
OD450 [9]: 3.48 OD450
OD450 [10]: 0.61 OD450

B12: TCN-553 (5261_C18) (antibody, V domains shown)
VH: QVQVVQSGTEVKKPGSSVKVSCQTSGGRFMSYAITWVRQAPGQGLEWMGGIVPVFGTANYAQKFQGRVTITTDDSTRTAYMELSSLRSEDTAVYYCGFRYGSGYGFDSWGQGTLVTVSS
VL: EIVLTQSPGTLSLSPGERATLSCRASQSVSSSYLAWYQKKPGQAPRLLIYGASTRATGIPDRFTGSGSGTDFTLSISRLEPEDFAVYYCQHFGTSVFTFGGGTKVEIK
% Neutralization [7]: 44%
% Neutralization [8]: 5%

B13: TCN-531 (5091_H13) (antibody, V domains shown)
VH: EVQLVESGGDLVQPGRSLKLSCTGSGFTFGDYGVTWVRQAPGKGLEWVGFIRTRPWGGTADTAASVKGRFTISRDDSKSLAYLQMNSLKTEDTAVYYCCRDAPPNVEVASMTNWYFDLWGRGTLVTVSS
VL: DIQLTQSPSSLSASVGDRVTITCRASQGILNCLAWYQQKPGKVPNLLMYAASTLQSGVPSRFSGSGFGTDFTLTISSLQPEDVATYYCQTYGGVSTFGGGTKVEIR
% Neutralization [1]: 65%
OD450 [2]: 0.1 OD450
OD450 [3]: 0.09 OD450

B14: TCN-535 (5246_P19) (antibody, V domains shown)
VH: QVQLVQSGSEVKKPGTSVKVSCTASGSVFTNYGISWVRQAPGQGLEWMGGIIPLFGAAKYAQKFQGRVTITADESTKTVYMELSRLTSKDTAIYFCAKAPRVYEYYFDQWGQGTPVTVSS
VL: EIVLTQSPGTLSLSPGERATLSCRASQSVSSSQLAWYQQKPGQAPRLIIYGASTRATGIPDRFSGSGSGTDFTLTIGRLEPEDFAVFFCQQYSTSPPTFGQGTKVDFK
% Neutralization [1]: 82%
OD450 [4]: 3.52 OD450
OD450 [5]: 2.45 OD450

B15: TCN-530 (5248_H10a) (antibody, V domains shown)
VH: QVQLVQSGAEVRKPGSSVKVSCKASGGPFMSYAIGWVRQAPGQGLEWMGGINPVFGRPHYAQKFQGRVTIATDDSTKTSYMELSSLTSEDTGMYYCASRYSRSSPGTFESWGQGTLVTVSS
VL: EIVMTQFPATLSVSPGERVTLSCRASQSVSNNLAWYQQKPGQPPRLLIYDASTRATGVPAKFSGTGSGTEFTLSISSLQSEDFAVYYCQQYHNWPPSYSFGLGTKLEIK
% Neutralization [1]: 64%
OD450 [2]: 3.62 OD450
OD450 [3]: 3.43 OD450

B16: TCN-558 (5248_H10b) (antibody, V domains shown)
VH: QVQLVQSGSEVKKPGTSVKVSCTASGSVFTNYGISWVRQAPGQGLEWMGGIIPLFGAAKYAQKFQGRVTITADESTKTVYMELSRLTSKDTAIYFCAKAPRVYEYYFDQWGQGTPVTVSS
VL: EIVMTQFPATLSVSPGERVTLSCRASQSVSNNLAWYQQKPGQPPRLLIYDASTRATGVPAKFSGTGSGTEFTLSISSLQSEDFAVYYCQQYHNWPPSYSFGLGTKLEIK
% Neutralization [7]: 84%
% Neutralization [8]: 7%

B17: TCN-534 (5249_B02) (antibody, V domains shown)
VH: QVQLVQSGAEVKKPGSSVKVSCRESGGTFNGYTITWVRQAPGQGLEWMGGIIPMMGTVNYAQKLQGRVTITTDYFTKTAYMDLNNLRSEDTAMYYCVKIRYTGQQLLWGQGTLVTVSS
VL: DIQMTQSPSTLSASIGDRVTITCRASQSIASWLAWYQQKPGKAPKLLIYEAVNLESGVPSRFSGSGSGTDFTLTISSLQPDDFATYFCQHYGTISQTFGGGTKVEIK
% Neutralization [1]: 86%
OD450 [4]: 3.5 OD450
OD450 [5]: 2.45 OD450
